Test results as given in publication PMC2532732.

Experiments:
Assay in all cases: EMSA
[1] = molecular target: T1, p73 DBD (UniProt O15350 104-333)
T1 sequence: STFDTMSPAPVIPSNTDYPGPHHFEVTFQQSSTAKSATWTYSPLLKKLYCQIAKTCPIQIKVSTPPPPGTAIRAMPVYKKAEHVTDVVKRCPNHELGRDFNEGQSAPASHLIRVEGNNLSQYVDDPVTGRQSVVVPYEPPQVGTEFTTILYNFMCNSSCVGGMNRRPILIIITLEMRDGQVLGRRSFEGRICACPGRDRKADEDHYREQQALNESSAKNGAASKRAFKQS

[2] = molecular target: p53 DBD (UniProt P04637 94-312)
[3] = molecular target: T2, p63 DBD (UniProt Q9H3D4 154-365)
T2 sequence: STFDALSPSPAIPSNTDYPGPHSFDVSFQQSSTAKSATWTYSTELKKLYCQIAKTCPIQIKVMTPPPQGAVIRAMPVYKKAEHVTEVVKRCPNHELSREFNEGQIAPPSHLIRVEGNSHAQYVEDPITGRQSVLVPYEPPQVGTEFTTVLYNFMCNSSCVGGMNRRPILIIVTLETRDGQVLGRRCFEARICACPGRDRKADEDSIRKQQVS

Measured: binding result

p53 DBD, sequence (P04637 94-312): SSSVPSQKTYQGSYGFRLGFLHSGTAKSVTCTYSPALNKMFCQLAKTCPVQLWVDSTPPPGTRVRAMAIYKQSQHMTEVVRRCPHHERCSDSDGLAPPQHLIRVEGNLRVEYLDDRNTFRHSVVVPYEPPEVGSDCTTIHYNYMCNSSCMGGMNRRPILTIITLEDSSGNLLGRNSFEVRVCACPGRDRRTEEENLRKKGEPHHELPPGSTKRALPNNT

B1: Bax promoter 30-mer (dsDNA)
DNA 1: GGGCTCACAAGTTAGAGACAAGCCTGGGCG
DNA 2: CGCCCAGGCTTGTCTCTAACTTGTGAGCCC
binds: all assays above

B2: PUMA promoter 30-mer (dsDNA)
DNA 1: CGCGCCTGCAAGTCCTGACTTGTCCGCGGC
DNA 2: GCCGCGGACAAGTCAGGACTTGCAGGCGCG
binds: all assays above
